According to article PMC10681739, “High-throughput data and modeling reveal insights into the mechanisms of cooperative DNA-binding by transcription factor proteins”:

Target: T1, ETS1 (Homo sapiens, UniProt P14921)
T1 sequence: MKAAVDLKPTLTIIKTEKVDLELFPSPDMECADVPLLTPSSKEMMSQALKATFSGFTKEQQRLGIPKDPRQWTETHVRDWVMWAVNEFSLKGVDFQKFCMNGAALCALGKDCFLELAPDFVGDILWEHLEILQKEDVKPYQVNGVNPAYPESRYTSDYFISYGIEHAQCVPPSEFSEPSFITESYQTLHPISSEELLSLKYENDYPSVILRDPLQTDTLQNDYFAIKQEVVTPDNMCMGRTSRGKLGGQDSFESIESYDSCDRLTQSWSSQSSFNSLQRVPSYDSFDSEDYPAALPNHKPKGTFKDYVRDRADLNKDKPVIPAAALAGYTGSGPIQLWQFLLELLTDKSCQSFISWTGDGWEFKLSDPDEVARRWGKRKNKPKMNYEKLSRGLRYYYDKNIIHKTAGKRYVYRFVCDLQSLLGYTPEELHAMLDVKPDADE
Assay: gcPBM; 1 nM ETS1
Details: tags: N-terminal GST (pDEST15), kept (PMC6008103); label: surface-attached array probe

B1: Table S2 C row 9 (dsDNA)
DNA 1: CATGTGAGCGACTGGGCCGCAGCCATCAGCCTCCTG
DNA 2: CAGGAGGCTGATGGCTGCGGCCCAGTCGCTCACATG
binding signal: 350 PBM fluorescence, median of replicate spots

B2: Table S2 C row 169 (dsDNA)
DNA 1: TGGGCATGCGCGGCGCGCGGTTGGCACTGGCTGCGA
DNA 2: TCGCAGCCAGTGCCAACCGCGCGCCGCGCATGCCCA
binding signal: 336 PBM fluorescence, median of replicate spots

B3: Table S2 C row 140 (dsDNA)
DNA 1: CCACGGCCCGGTGCCTGTGGTCCCCTCCCCGAGGGT
DNA 2: ACCCTCGGGGAGGGGACCACAGGCACCGGGCCGTGG
binding signal: 328 PBM fluorescence, median of replicate spots

B4: Table S2 C row 127 (dsDNA)
DNA 1: CCGCCCTCGGTCCCCACCGCGGAGGACTCTCTCAAG
DNA 2: CTTGAGAGAGTCCTCCGCGGTGGGGACCGAGGGCGG
binding signal: 352 PBM fluorescence, median of replicate spots

B5: Table S2 C row 142 (dsDNA)
DNA 1: CCTAAGAGTAAGCTAACCACAGGGATTCTTTTGTAG
DNA 2: CTACAAAAGAATCCCTGTGGTTAGCTTACTCTTAGG
binding signal: 351 PBM fluorescence, median of replicate spots

B6: Table S2 B row 614 (dsDNA)
DNA 1: GAGGACTTCCGGGTGGGTGTGATATCTACGGGCCCG
DNA 2: CGGGCCCGTAGATATCACACCCACCCGGAAGTCCTC
binding signal: 17700 PBM fluorescence, median of replicate spots

B7: Table S2 C row 135 (dsDNA)
DNA 1: GGGTCCCGGGGACCCTGCGGGCTCCGAGTAGTCGTA
DNA 2: TACGACTACTCGGAGCCCGCAGGGTCCCCGGGACCC
binding signal: 332 PBM fluorescence, median of replicate spots

B8: Table S2 C row 29 (dsDNA)
DNA 1: TGGCCATGGCCTATGACCGCTATGTGGCCATCTGCT
DNA 2: AGCAGATGGCCACATAGCGGTCATAGGCCATGGCCA
binding signal: 340 PBM fluorescence, median of replicate spots

B9: Table S2 C row 30 (dsDNA)
DNA 1: TGAAATTTTTCTTTTTGTGGTCAGTAATCCCAAAAA
DNA 2: TTTTTGGGATTACTGACCACAAAAAGAAAAATTTCA
binding signal: 339 PBM fluorescence, median of replicate spots

B10: Table S2 C row 111 (dsDNA)
DNA 1: CCAGCTGTACTGAGTTGAGGTTTTTCTGACCCTCAG
DNA 2: CTGAGGGTCAGAAAAACCTCAACTCAGTACAGCTGG
binding signal: 336 PBM fluorescence, median of replicate spots

B11: Table S2 C row 195 (dsDNA)
DNA 1: GCTGCTGACTGCCCCTGAGGTTAGAGATTGACTAGA
DNA 2: TCTAGTCAATCTCTAACCTCAGGGGCAGTCAGCAGC
binding signal: 325 PBM fluorescence, median of replicate spots

B12: Table S2 C row 90 (dsDNA)
DNA 1: ACTGAAAATCTGCCTTGTGGCTGCTTCTGGTACACA
DNA 2: TGTGTACCAGAAGCAGCCACAAGGCAGATTTTCAGT
binding signal: 355 PBM fluorescence, median of replicate spots

B13: Table S2 C row 104 (dsDNA)
DNA 1: TCTCCCAGCGTCTGATGTGGCTTCGGTGTCAGACAT
DNA 2: ATGTCTGACACCGAAGCCACATCAGACGCTGGGAGA
binding signal: 352 PBM fluorescence, median of replicate spots

B14: Table S2 C row 160 (dsDNA)
DNA 1: GCCAGCCTGGGCCGGGCCACAAGAACAAGGAATGTT
DNA 2: AACATTCCTTGTTCTTGTGGCCCGGCCCAGGCTGGC
binding signal: 322 PBM fluorescence, median of replicate spots

B15: Table S2 B row 703 (dsDNA)
DNA 1: GCCGGGCACTTCCTGTGGAGGCCGAAGCGGGTGCGC
DNA 2: GCGCACCCGCTTCGGCCTCCACAGGAAGTGCCCGGC
binding signal: 17200 PBM fluorescence, median of replicate spots

B16: Table S2 C row 109 (dsDNA)
DNA 1: CAAGCCCAAGAACGCTGTGGTTTTTGCAGACTCATA
DNA 2: TATGAGTCTGCAAAAACCACAGCGTTCTTGGGCTTG
binding signal: 353 PBM fluorescence, median of replicate spots

B17: Table S2 C row 132 (dsDNA)
DNA 1: GGCCTGATAGCAATGGCCACAAACACAGCAAGCCAC
DNA 2: GTGGCTTGCTGTGTTTGTGGCCATTGCTATCAGGCC
binding signal: 348 PBM fluorescence, median of replicate spots

B18: Table S2 C row 144 (dsDNA)
DNA 1: ACCGTCAATCTCGACACCGCGGAGCACAATGCGTGC
DNA 2: GCACGCATTGTGCTCCGCGGTGTCGAGATTGACGGT
binding signal: 352 PBM fluorescence, median of replicate spots

B19: Table S2 C row 165 (dsDNA)
DNA 1: ATCAGCGTGGCTGCTGCCGCAGAACAAGCCACGCTT
DNA 2: AAGCGTGGCTTGTTCTGCGGCAGCAGCCACGCTGAT
binding signal: 345 PBM fluorescence, median of replicate spots

B20: Table S2 C row 188 (dsDNA)
DNA 1: GGAGATAGCCTAGGCTGTGGTTTTTCAGAGAAACCT
DNA 2: AGGTTTCTCTGAAAAACCACAGCCTAGGCTATCTCC
binding signal: 350 PBM fluorescence, median of replicate spots

B21: Table S2 C row 145 (dsDNA)
DNA 1: TGTGGCTGCCCTCAGACCACAAACCACCAGCCCTAT
DNA 2: ATAGGGCTGGTGGTTTGTGGTCTGAGGGCAGCCACA
binding signal: 352 PBM fluorescence, median of replicate spots

B22: Table S2 C row 97 (dsDNA)
DNA 1: CGAGGGCGCGCGTCTCGCGGTCCATCCAGCTCAGCA
DNA 2: TGCTGAGCTGGATGGACCGCGAGACGCGCGCCCTCG
binding signal: 331 PBM fluorescence, median of replicate spots

B23: Table S2 C row 35 (dsDNA)
DNA 1: GTAGCTGTAACTGCCACCGCGATGCCGAAGGCGCCC
DNA 2: GGGCGCCTTCGGCATCGCGGTGGCAGTTACAGCTAC
binding signal: 324 PBM fluorescence, median of replicate spots

B24: Table S2 C row 17 (dsDNA)
DNA 1: GGGGTGTACACTAGCTGCGGTCTGATTTAGCCCTTT
DNA 2: AAAGGGCTAAATCAGACCGCAGCTAGTGTACACCCC
binding signal: 351 PBM fluorescence, median of replicate spots

B25: Table S2 C row 193 (dsDNA)
DNA 1: GCTCCTAGATGGCTCTGTGGGCAGGTGCTGGCCAAG
DNA 2: CTTGGCCAGCACCTGCCCACAGAGCCATCTAGGAGC
binding signal: 347 PBM fluorescence, median of replicate spots

B26: Table S2 C row 19 (dsDNA)
DNA 1: GACAAATCAAATGCCACCGCAGAGTTTACTCGAGTT
DNA 2: AACTCGAGTAAACTCTGCGGTGGCATTTGATTTGTC
binding signal: 343 PBM fluorescence, median of replicate spots

B27: Table S2 C row 147 (dsDNA)
DNA 1: GGCCTCTGAGGAGCAGCCGCAGGAGGAGGAGGAGGT
DNA 2: ACCTCCTCCTCCTCCTGCGGCTGCTCCTCAGAGGCC
binding signal: 353 PBM fluorescence, median of replicate spots

B28: Table S2 B row 649 (dsDNA)
DNA 1: TTATTTCCGGTGTTGATCTTTTTATTGGTACCAGGC
DNA 2: GCCTGGTACCAATAAAAAGATCAACACCGGAAATAA
binding signal: 43000 PBM fluorescence, median of replicate spots

B29: Table S2 B row 1682 (dsDNA)
DNA 1: CTTGTTCTATTTCCTGTTTGTGCTGAGTGACTGTCT
DNA 2: AGACAGTCACTCAGCACAAACAGGAAATAGAACAAG
binding signal: 15900 PBM fluorescence, median of replicate spots

B30: Table S2 C row 95 (dsDNA)
DNA 1: TGTCTCATCAGCCAGGCCACAAACGCGATGTTTACA
DNA 2: TGTAAACATCGCGTTTGTGGCCTGGCTGATGAGACA
binding signal: 338 PBM fluorescence, median of replicate spots

B31: Table S2 C row 45 (dsDNA)
DNA 1: GCGGGGTTGGGAGGCTGCGGGAGTTTGCGTCCCCTC
DNA 2: GAGGGGACGCAAACTCCCGCAGCCTCCCAACCCCGC
binding signal: 339 PBM fluorescence, median of replicate spots

B32: Table S2 C row 189 (dsDNA)
DNA 1: CCCTGGGGTCCCTTTGCCGCAGTTCCACATCTGCAG
DNA 2: CTGCAGATGTGGAACTGCGGCAAAGGGACCCCAGGG
binding signal: 346 PBM fluorescence, median of replicate spots

B33: Table S2 C row 185 (dsDNA)
DNA 1: GCAGAAATATGCTGAACCACAACTGAAGGTGGCTGA
DNA 2: TCAGCCACCTTCAGTTGTGGTTCAGCATATTTCTGC
binding signal: 345 PBM fluorescence, median of replicate spots

B34: Table S2 C row 164 (dsDNA)
DNA 1: GAGCGGAGACAGAACACCGCACACCCAGCGTCCCAA
DNA 2: TTGGGACGCTGGGTGTGCGGTGTTCTGTCTCCGCTC
binding signal: 352 PBM fluorescence, median of replicate spots

B35: Table S2 C row 61 (dsDNA)
DNA 1: TGCTCTCGGCCTGGCTGTGGGCGGGTGGCCATCAGT
DNA 2: ACTGATGGCCACCCGCCCACAGCCAGGCCGAGAGCA
binding signal: 327 PBM fluorescence, median of replicate spots

B36: Table S2 C row 94 (dsDNA)
DNA 1: CCCAAGCCCGCGGGCTGCGGGCGCTGATTGGGCGGC
DNA 2: GCCGCCCAATCAGCGCCCGCAGCCCGCGGGCTTGGG
binding signal: 346 PBM fluorescence, median of replicate spots

B37: Table S2 C row 11 (dsDNA)
DNA 1: AGGTCCTCTGCATTCTGTGGTCACAAACCCAGAGCC
DNA 2: GGCTCTGGGTTTGTGACCACAGAATGCAGAGGACCT
binding signal: 347 PBM fluorescence, median of replicate spots

B38: Table S2 B row 1920 (dsDNA)
DNA 1: ACATTCTTCCGGTTGGACCTCCGCGATCAGCGCTGT
DNA 2: ACAGCGCTGATCGCGGAGGTCCAACCGGAAGAATGT
binding signal: 16500 PBM fluorescence, median of replicate spots

B39: Table S2 C row 126 (dsDNA)
DNA 1: TCCACGCCCCGGCGCTGCGGGCACCGAGTAAAACGC
DNA 2: GCGTTTTACTCGGTGCCCGCAGCGCCGGGGCGTGGA
binding signal: 327 PBM fluorescence, median of replicate spots

B40: Table S2 C row 7 (dsDNA)
DNA 1: AAATAGCGCAGGTCAACCACAGACCCCAGCACTGCA
DNA 2: TGCAGTGCTGGGGTCTGTGGTTGACCTGCGCTATTT
binding signal: 355 PBM fluorescence, median of replicate spots

B41: Table S2 C row 194 (dsDNA)
DNA 1: TCGGGAACGTGGGGCTGCGGCCGCCCATGGTGCCCC
DNA 2: GGGGCACCATGGGCGGCCGCAGCCCCACGTTCCCGA
binding signal: 335 PBM fluorescence, median of replicate spots

B42: Table S2 C row 66 (dsDNA)
DNA 1: TCCTGAGTGCTGGGAACCGCAGCGCCACATGCACCC
DNA 2: GGGTGCATGTGGCGCTGCGGTTCCCAGCACTCAGGA
binding signal: 341 PBM fluorescence, median of replicate spots
